Data taken from the supplement of paper PMC12042874.
± gives the uncertainty stated by the source.

Assay: amyloid nucleation score (Sup35N fusion, yeast selection) (log enrichment); library NNK2; higher = more nucleation; inactive = no reads after selection
Method in brief: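 Nucleation score: DiMSum log enrichment of output over input reads, centred on the mode score of non-aggregating sequences. Only sequences with at least 100 input reads were kept. Reads came from Illumina sequencing of plasmid inserts before and after 7 days of growth at 30°C without adenine and uracil, in psi-negative yeast expressing Sup35N fused to peptides of 20 random codons after 24 hours of induction with 100 μM copper sulfate.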

| Substance | amyloid nucleation score |
| --- | --- |
| FTNIGSEYDMTGLNEGSSMP | -0.411 ± 0.29 |
| FTSFCMMKGPGLY | -1.44 ± 1.1 |
| FTTMESDGMVFGL | 3.75 ± 0.061 |
| FTVGSMSGDFWLLCWYLR | 3.09 ± 0.15 |
| FTVRQTKAAGECSSKQWGTL | 3.18 ± 0.098 |
| FTWCRWVFWRNCYNDMEEDA | -1.01 ± 1.1 |
| FTWVYMHNIIFLLGSRLYIK | inactive |
| FVDYVTCSQYVNIFRDTLGL | -0.677 ± 0.38 |
| FVECILASLWTRFEKIRMAC | -0.108 ± 1.1 |
| FVEIIAKWILTI | 0.033 ± 0.6 |
| FVGTLMDPVSLMKLRW | 0.787 ± 0.31 |
| FVHFMRVAASRNTNFYNLLW | inactive |
| FVHKSCSAALTTLGTVAD | 4.333 ± 0.042 |
| FVKGS | inactive |
| FVPAVEFVHHFAVWVWRE | 0.072 ± 1.1 |
| FVPFYYKADKLTILSS | inactive |
| FVTFWDYWSSRGDPMMSYRV | 0.13 ± 0.49 |
| FWALCVASVICYFVRMLSLA | 0.169 ± 0.3 |
| FWCYELDNPDGYLIFLHQPV | inactive |
| FWGIMNSILTETLL | -1.53 ± 1.1 |
| FWLSSESANYTCFKRYVG | 0.25 ± 0.47 |

| Substance | amyloid nucleation score |
| --- | --- |
| FWRVLLSTLHTIFNMRNNMP | -1.28 ± 0.54 |
| FWSVEMMRHTSSFIFAEWNK | -0.033 ± 0.2 |
| FYCIARERLRMVNFT | -0.845 ± 0.62 |
| FYCLCTTDGICLEDLL | -0.097 ± 1.1 |
| FYESKMGVMINFNWFYDTTS | 6.88 ± 0.069 |
| FYFLLG | 0.587 ± 0.32 |
| FYGQMRSKVLCLFH | -1.02 ± 0.76 |
| FYGRCLTFTAHPSFSRFAR | 0.333 ± 0.61 |
| FYGSEVIMSTDVQGNGEYGA | -0.791 ± 0.62 |
| FYINVRLYARVACRCMRVPC | 5.4 ± 0.076 |
| FYKTLCKLGWAPWS | -0.744 ± 0.32 |
| FYLIIDPIPMDCSGIIVNCY | inactive |
| FYLLVFDLHDSCL | inactive |
| FYLNRKRVYLSDGCRAFR | 0.252 ± 0.51 |
| FYLSAFRHVMRASCLDDLSK | inactive |
| FYLWATTYQCRFFIRYAKFS | 2.97 ± 0.084 |
| FYMLYYQIAVSCHLCFDILV | inactive |
| FYNIRPETVAKAMKGLGWST | -0.136 ± 0.37 |
| FYQGLATILSSSLVPIHRHQ | inactive |
| FYQVNLPSCLNSDDNRCS | inactive |
| FYRGM | -0.547 ± 0.5 |

| Substance | amyloid nucleation score |
| --- | --- |
| FYRGSQVMPR | -0.647 ± 1.1 |
| FYSCCPWLSLRSAMIYVMIS | 1.61 ± 0.22 |
| FYSLTDPCICGCH | -0.341 ± 0.79 |
| FYTTRMYLVFSYFV | 3.29 ± 0.064 |
| FYWAKPSHWAPGFINGQDVL | -1.19 ± 0.54 |
| FYYNCGWSCNNVTWFSRQFV | 3.04 ± 0.12 |
| FYYVFYLNSLAVAGHLRILD | inactive |
| GAGHNNLLEDAFTSRSVTAR | 0.489 ± 0.28 |
| GAIRFK | 0.223 ± 0.54 |
| GAKIGKMDVLGFDGDGLIYI | 1.42 ± 0.1 |
| GASVVDKSSRPCGAILEHSG | 0.894 ± 0.74 |
| GAWFQTYWLWCEYMAFIQKL | 1.86 ± 0.17 |
| GCHSFLPGYFTWNYDSDNYF | inactive |
| GCMLSRMNTGLSRLGLFFDS | -1.25 ± 0.55 |
| GCTGGRIK | -0.088 ± 0.49 |
| GCVRIMPCVFGSVRWHWYVW | 1.28 ± 0.25 |
| GDDDVVVDDQNLKCDGYTDL | 1.03 ± 0.24 |
| GDKSIRSPLAV | -0.087 ± 0.34 |
| GDVCNVLLAYWVFVTLSFSV | 1.5 ± 0.58 |
| GDVDEWCLTGLGLSNIMVGQ | 1.52 ± 0.58 |
